# Measurements published in patent US20250223358A1 (ANTENGENE BIOLOGICS, published 2025).
# Where two headings read alike, the source gives them in different places.
# Key:
# human CD3 [1] = target: T1, human CD3 (human, UniProt P07766 23-207; P04234 22-171; P09693 23-182); experiment: cell-based or functional assay
# cynomolgus CD3 [2] = target: T2, cynomolgus CD3 (cynomolgus (Macaca fascicularis), UniProt Q95LI5 22-198; Q95LI8 22-171; Q95LI7 23-181); experiment: FACS on 293T-cynoCD3mix cells
# T2 construct: whole, on cells; composition of the 'mix' not defined; also called cynoCD3
# T2 sequence (Q95LI5 22-198, chain 1 of 3): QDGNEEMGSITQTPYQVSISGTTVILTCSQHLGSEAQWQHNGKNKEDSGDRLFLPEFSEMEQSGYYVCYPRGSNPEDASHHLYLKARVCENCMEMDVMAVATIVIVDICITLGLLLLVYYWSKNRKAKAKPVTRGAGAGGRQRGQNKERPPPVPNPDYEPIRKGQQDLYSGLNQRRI
# T2 sequence (Q95LI8 22-171, chain 2 of 3): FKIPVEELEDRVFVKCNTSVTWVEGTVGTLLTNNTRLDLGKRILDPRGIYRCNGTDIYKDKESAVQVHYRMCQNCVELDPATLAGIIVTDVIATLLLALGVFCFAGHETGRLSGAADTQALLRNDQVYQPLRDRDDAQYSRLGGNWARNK
# T2 sequence (Q95LI7 23-181, chain 3 of 3): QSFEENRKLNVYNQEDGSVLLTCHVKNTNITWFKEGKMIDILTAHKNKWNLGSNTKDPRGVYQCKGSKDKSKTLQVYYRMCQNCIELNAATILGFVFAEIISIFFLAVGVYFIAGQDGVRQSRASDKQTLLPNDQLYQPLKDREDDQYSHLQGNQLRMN
# human CD3 [3] = target: T1, human CD3; experiment: FACS on Jurkat cells
# human CD3 [4] = target: T1, human CD3; experiment: cell-based or functional assay; remark: listed apart in the source
# human CD3 [5] = target: T1, human CD3; experiment: cell-based or functional assay; remark: listed apart in the source
# cynomolgus CD3 [6] = target: T2, cynomolgus CD3; experiment: FACS on 293T-cynoCD3mix cells; remark: listed apart in the source
# human CD3 [7] = target: T1, human CD3; experiment: FACS on Jurkat cells; remark: listed apart in the source
# T1 sequence (P07766 23-207, chain 1 of 3): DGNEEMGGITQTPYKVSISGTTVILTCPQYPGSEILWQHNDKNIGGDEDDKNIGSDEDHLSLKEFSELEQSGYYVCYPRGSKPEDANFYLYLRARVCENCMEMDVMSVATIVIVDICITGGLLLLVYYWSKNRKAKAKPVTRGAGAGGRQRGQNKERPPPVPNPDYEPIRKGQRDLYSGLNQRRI
# T1 sequence (P04234 22-171, chain 2 of 3): as the sequence (Q95LI8 22-171, chain 2 of 3) above, with V5I, K15N, V20I, T32S, N33D, N34I, A64T, N74S, L83V, R141H counted along it
# T1 sequence (P09693 23-182, chain 3 of 3): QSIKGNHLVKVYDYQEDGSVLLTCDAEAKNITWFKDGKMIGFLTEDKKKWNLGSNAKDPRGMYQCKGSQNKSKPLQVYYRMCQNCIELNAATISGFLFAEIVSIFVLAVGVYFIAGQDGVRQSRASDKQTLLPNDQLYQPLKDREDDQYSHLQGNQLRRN
Binder,"EC50_Fold change (Jurkat-NFAT-luciferase activation, normalized to ch147E11E2) (human CD3 [5]) [fold]","Top FACS signal_Fold change (Jurkat-NFAT-luciferase activation, normalized to ch147E11E2) (human CD3 [5]) [fold]",EC50 (cynomolgus CD3 [6]) [nM],Top signal (cynomolgus CD3 [6]),also measured
"ch127E2D3 (antibody, V domains shown) VH: QVQLQQPGTELVKPGASVKLSCKASGYTFTSYWMHWVKQRPGEGLEWIGNIYPGSSSINYNEKFKSKATLTVDKSSSTAYMQLSSLTSEDSAVYYCARDRSSQYYFDYWGQGTTLTVSS VL: DIVMSQSPSSLAVSAGEKVTMSCKSSQSLLNSRTRKNYLAWYQQKPGQSPKLLIYWASTRESGVPDRFTGSGSGTDFTLTISSVQAEDLAVYYCTQSYNLRTFGGGTKLEIK",,,,,EC50 (Jurkat-NFAT-luciferase activation) (human CD3 [1]): 61.7 nM; Top signal (Jurkat-NFAT-luciferase activation) (human CD3 [1]): 337; EC50 (cynomolgus CD3 [2]): 2.33 nM; Top signal (cynomolgus CD3 [2]): 46900
"ch124E3D6 (antibody, V domains shown) VH: QVQLQQPGTELVKPGASVKLSCKASGYTFTSYWMHWVKQRPGQGLEWIGNINPSNGDTNYNEKFKSKATLTVDKSSSTAYMQLSSLTSEDSAVYYCARDRSSQYYFDYWGQGTTLTVSS VL: DIVMSQSPSSLAVSAGEKVTMSCKSSQSLLNSRTRKNYLAWYQQKPGQSPKLLIYWASTRESGVPDRFTGSGSGTDFTLTISSVQAEDLAVYYCKQSYNLRTFGGGTKLEIK",,,,,EC50 (Jurkat-NFAT-luciferase activation) (human CD3 [1]): 32.4 nM; Top signal (Jurkat-NFAT-luciferase activation) (human CD3 [1]): 482; EC50 (cynomolgus CD3 [2]): 2.64 nM; Top signal (cynomolgus CD3 [2]): 45800
"ch140D2B10 (antibody, V domains shown) VH: QVQLQQPGTELVKPGASVKLSCKASGYTFTSYWMHWVKQRPGQGLEWIGNINPSNGESNYNEKFKSKATLTVDKSSSTAYMQLSSLTSEDYAVYYCARDRSSQYYFDYWGQGTTLTVSS VL: DIVMSQSPSSLAVSAGEKVTMSCKSSQSLLNSRTRKNYLAWYQQKPGQSPKLLIYWASTRESGVPDRFTGSGSGTDFTLTISSVQAEDLAVYYCKQSYTLRTFGGGTKLEIK",,,,,EC50 (cynomolgus CD3 [2]): 2.81 nM; Top signal (cynomolgus CD3 [2]): 52900
"ch133B4C7 (antibody, V domains shown) VH: QVQLQQPGTELVKPGASVKLSCKASGYTFTSYWMHWVKQRPGQGLEWIGNINPSNGDTNFNEKFKSKATLTVDKSSSTAYMQLSSLTSEDSAVYYCARDRSSQYYFDYWGQGTTLTVSS VL: DIVMSQSPSSLAVSAGEKVTMSCNSSQSLLNSRTRKNYLAWYQQKPGQSPKLLIYWASTRESGVPDRFTGSGSGTDFTLTISSVQAEDLAVYYCKQSYTLRTFGGGTKLEIK",,,,,EC50 (Jurkat-NFAT-luciferase activation) (human CD3 [1]): 28 nM; Top signal (Jurkat-NFAT-luciferase activation) (human CD3 [1]): 290; EC50 (cynomolgus CD3 [2]): 2.81 nM; Top signal (cynomolgus CD3 [2]): 45200
"hu40E9-L5H8 (antibody, V domains shown) VH: EVQLVQSGAEVKKPGSSVKVSCKASGYTFSSYVIHWVRQAPGQGLEWMGYINPGNDVIKYNEKFKGRVTLTSDKSTSTAYMELSSLRSEDTAVYYCARESYSSYDGFAYWGQGTLVTVSS VL: EIVLTQSPDFQSVTPKEKVTITCSASSSVSYMHWYQQKPDQSPKRLIYDTSKLASGVPSRFSGSGSGTDFTLTINSLEAEDAATYYCQQWRSSPPTFGGGTKVEIK",,,,,"EC50 (human CD3 [3]): 25.4 nM; Top FACS signal (human CD3 [3]): 531; Top signal_Fold change (Jurkat-NFAT-luciferase activation, normalized to ch40-C12-C10-E9) (human CD3 [4]): 0.3 fold"
"hu40E9-L6H3 (antibody, V domains shown) VH: EVQLVQSGAEVKKPGSSVKVSCKASGYTFSSYVIHWVRQAPGQGLEWMGYINPYNDVIKYNEKFKGRVTLTSDKSTSTAYMELSSLRSEDTAVYYCARDSYYSYDGFAYWGQGTLVTVSS VL: EIVLTQSPDFQSVTPKEKVTITCSASSSVSYMHWYQQKPDQSPKRLIYDTSKLASGVPSRFSGSGSGTDFTLTINSLEAEDAATYYCQQWRSWPPTFGGGTKVEIK",,,,,"EC50 (human CD3 [3]): 0.8 nM; Top FACS signal (human CD3 [3]): 1990; EC50_Fold change (Jurkat-NFAT-luciferase activation, normalized to ch40-C12-C10-E9) (human CD3 [4]): 4.34 fold; Top signal_Fold change (Jurkat-NFAT-luciferase activation, normalized to ch40-C12-C10-E9) (human CD3 [4]): 0.95 fold"
"hu147E2-L1H3 (antibody, V domains shown, humanized 147E11E2; also called hu14E2-L1H3) VH: EVQLVQSGAEVKKPGSSVKVSCKASGYTFTSYWMHWVRQAPGQGLEWMGNINPSNGATNYNEKFKSRVTLTVDKSTSTAYMELSSLRSEDTAVYYCARDRSSQYYFDYWGQGTTVTVSS VL: DIVMTQSPDSLAVSLGERATINCKSSQSLLNSRSRKNYLAWYQQKPGQPPKLLIYWASTRESGVPDRFSGSGSGTDFTLTISSLQAEDVAVYYCTQSYTLRTFGGGTKVEIK",1.98,1,1.51,19200,
"hu147E2-L3H3 (antibody, V domains shown, humanized 147E11E2; also called hu14E2-L3H3) VH: EVQLVQSGAEVKKPGSSVKVSCKASGYTFTSYWMHWVRQAPGQGLEWMGNINPSNGATNYNEKFKSRVTLTVDKSTSTAYMELSSLRSEDTAVYYCARDRSSQYYFDYWGQGTTVTVSS VL: DIQMTQSPSSLSASVGDRVTITCKSSQSLLNSRSRKNYLAWYQQKPGKAPKLLIYWASTRESGVPSRFSGSGSGTDFTLTISSLQPEDFATYYCTQSYTLRTFGGGTKVEIK",1.36,0.68,1.63,19000,EC50 (human CD3 [7]): 0.659 nM; Top FACS signal (human CD3 [7]): 2680
"hu147E2-L2H2 (antibody, V domains shown, humanized 147E11E2; also called hu14E2-L2H2) VH: EVQLVQSGAEVKKPGSSVKVSCKASGYTFTSYWMHWVRQAPGQGLEWMGNINPSNGATNYNEKFKSRVTITADKSTSTAYMELSSLRSEDTAVYYCARDRSSQYYFDYWGQGTTVTVSS VL: DIVMTQSPDSLAVSLGERATINCKSSQSLLNSRSRKNYLAWYQQKPGQSPKLLIYWASTRESGVPDRFSGSGSGTDFTLTISSLQAEDVAVYYCTQSYTLRTFGGGTKVEIK",1.4,0.9,1.64,20500,
"hu147E2-L3H2 (antibody, V domains shown, humanized 147E11E2; also called hu14E2-L3H2) VH: EVQLVQSGAEVKKPGSSVKVSCKASGYTFTSYWMHWVRQAPGQGLEWMGNINPSNGATNYNEKFKSRVTITADKSTSTAYMELSSLRSEDTAVYYCARDRSSQYYFDYWGQGTTVTVSS VL: DIQMTQSPSSLSASVGDRVTITCKSSQSLLNSRSRKNYLAWYQQKPGKAPKLLIYWASTRESGVPSRFSGSGSGTDFTLTISSLQPEDFATYYCTQSYTLRTFGGGTKVEIK",1.66,0.76,1.77,19200,EC50 (human CD3 [7]): 0.891 nM; Top FACS signal (human CD3 [7]): 2730
"hu147E2-L2H4 (antibody, V domains shown, humanized 147E11E2; also called hu14E2-L2H4) VH: EVQLVQSGAEVKKPGSSVKVSCKASGYTFTSYWMHWVRQAPGQGLEWIGNINPSNGATNYNEKFKSRATLTVDKSTSTAYMELSSLRSEDTAVYYCARDRSSQYYFDYWGQGTTVTVSS VL: DIVMTQSPDSLAVSLGERATINCKSSQSLLNSRSRKNYLAWYQQKPGQSPKLLIYWASTRESGVPDRFSGSGSGTDFTLTISSLQAEDVAVYYCTQSYTLRTFGGGTKVEIK",1.24,0.99,2.02,21200,
"hu147E2-L1H4 (antibody, V domains shown, humanized 147E11E2; also called hu14E2-L1H4) VH: EVQLVQSGAEVKKPGSSVKVSCKASGYTFTSYWMHWVRQAPGQGLEWIGNINPSNGATNYNEKFKSRATLTVDKSTSTAYMELSSLRSEDTAVYYCARDRSSQYYFDYWGQGTTVTVSS VL: DIVMTQSPDSLAVSLGERATINCKSSQSLLNSRSRKNYLAWYQQKPGQPPKLLIYWASTRESGVPDRFSGSGSGTDFTLTISSLQAEDVAVYYCTQSYTLRTFGGGTKVEIK",1.21,0.92,1.31,18700,
"hu147E2-L1H3a (antibody, V domains shown, humanized 147E11E2 with N55Q in HCDR2 (deamidation site removed); also called hu14E2-L1H3a) VH: EVQLVQSGAEVKKPGSSVKVSCKASGYTFTSYWMHWVRQAPGQGLEWMGNINPSQGATNYNEKFKSRVTLTVDKSTSTAYMELSSLRSEDTAVYYCARDRSSQYYFDYWGQGTTVTVSS VL: DIVMTQSPDSLAVSLGERATINCKSSQSLLNSRSRKNYLAWYQQKPGQPPKLLIYWASTRESGVPDRFSGSGSGTDFTLTISSLQAEDVAVYYCTQSYTLRTFGGGTKVEIK",,,1.66,20700,

# More lines, main results first:
"EC50_Fold change (Jurkat-NFAT-luciferase activation, normalized to ch147E11E2) (human CD3 [5]) [fold]","Top FACS signal_Fold change (Jurkat-NFAT-luciferase activation, normalized to ch147E11E2) (human CD3 [5]) [fold]",EC50 (cynomolgus CD3 [6]) [nM],Top signal (cynomolgus CD3 [6]),Binder,also measured
,,2.01,19700,"hu147E2-L1H2 (antibody, V domains shown, humanized 147E11E2; also called hu14E2-L1H2) VH: EVQLVQSGAEVKKPGSSVKVSCKASGYTFTSYWMHWVRQAPGQGLEWMGNINPSNGATNYNEKFKSRVTITADKSTSTAYMELSSLRSEDTAVYYCARDRSSQYYFDYWGQGTTVTVSS VL: DIVMTQSPDSLAVSLGERATINCKSSQSLLNSRSRKNYLAWYQQKPGQPPKLLIYWASTRESGVPDRFSGSGSGTDFTLTISSLQAEDVAVYYCTQSYTLRTFGGGTKVEIK",
1.65,0.78,1.86,21000,"hu147E2-L2H3 (antibody, V domains shown, humanized 147E11E2; also called hu14E2-L2H3) VH: EVQLVQSGAEVKKPGSSVKVSCKASGYTFTSYWMHWVRQAPGQGLEWMGNINPSNGATNYNEKFKSRVTLTVDKSTSTAYMELSSLRSEDTAVYYCARDRSSQYYFDYWGQGTTVTVSS VL: DIVMTQSPDSLAVSLGERATINCKSSQSLLNSRSRKNYLAWYQQKPGQSPKLLIYWASTRESGVPDRFSGSGSGTDFTLTISSLQAEDVAVYYCTQSYTLRTFGGGTKVEIK",
1.73,0.87,1.68,21100,"hu147E2-L1H3b (antibody, V domains shown, humanized 147E11E2 with N55S in HCDR2 (deamidation site removed); also called hu14E2-L1H3b) VH: EVQLVQSGAEVKKPGSSVKVSCKASGYTFTSYWMHWVRQAPGQGLEWMGNINPSSGATNYNEKFKSRVTLTVDKSTSTAYMELSSLRSEDTAVYYCARDRSSQYYFDYWGQGTTVTVSS VL: DIVMTQSPDSLAVSLGERATINCKSSQSLLNSRSRKNYLAWYQQKPGQPPKLLIYWASTRESGVPDRFSGSGSGTDFTLTISSLQAEDVAVYYCTQSYTLRTFGGGTKVEIK",
